# Assay results from publication PMC11286949, “Structural basis of tRNA recognition by the widespread OB fold”.
# Positions count from the first letter of the chain named. Names may count otherwise.
# B1: tRNAIle G18C/G19C/dACCA (structured_RNA)
# RNA: GGGCUUGUAGCUCAGGUCCUUAGAGCGCACCCCUGAUAAGGGUGAGGUCGGUGGUUCAAGUCCACUCAGGCCC
# B2: tRNAIle G18C/G19C (G1, Fig. 5a) (structured_RNA)
# RNA: GGGCUUGUAGCUCAGGUCCUUAGAGCGCACCCCUGAUAAGGGUGAGGUCGGUGGUUCAAGUCCACUCAGGCCUACCA
# B3: tRNAIle ASL-GAAA/5'GGCC (structured_RNA)
# RNA: GGCCGGGCUUGUAGCUCAGGUGGUUAGAGCGCACCGCGAAAGCGGUGAGGUCGGUGGUUCAAGUCCACUCAGGCCC
# B4: tRNAIle ASL-GAAA/5'GC (structured_RNA)
# RNA: GCGGGCUUGUAGCUCAGGUGGUUAGAGCGCACCGCGAAAGCGGUGAGGUCGGUGGUUCAAGUCCACUCAGGCCC
# B5: tRNAIle dACCA (structured_RNA)
# RNA: B1 RNA with C18G, C19G
# B6: tRNAIle 3'UGGU (structured_RNA)
# RNA: B2 RNA with G1A, C18G, C19G, A74U, C75G, C76G, A77U
# B7: tRNAIle ASL-GAAA/dACCA (structured_RNA)
# RNA: GGGCUUGUAGCUCAGGUGGUUAGAGCGCACCGCGAAAGCGGUGAGGUCGGUGGUUCAAGUCCACUCAGGCCC
# B8: tRNAIle ASL-GAAA (structured_RNA)
# RNA: GGGCUUGUAGCUCAGGUGGUUAGAGCGCACCGCGAAAGCGGUGAGGUCGGUGGUUCAAGUCCACUCAGGCCUACCA
# B9: tRNAIle d3'A (structured_RNA)
# RNA: AGGCUUGUAGCUCAGGUGGUUAGAGCGCACCCCUGAUAAGGGUGAGGUCGGUGGUUCAAGUCCACUCAGGCCUACC
# B10: MiniH dLoop (dsRNA)
# RNA 1: CCACUCAGGCCUACCA
# RNA 2: AGGCUUGGGUGG
# B11: tRNAIle G18C/G19C (A1, Suppl. Fig. 13b) (structured_RNA)
# RNA: B2 RNA with G1A
# B12: tRNATyr ASL-GAAA dACCA 6bp (structured_RNA)
# RNA: GGGCCCGGUGGGGUUCCCGAGCGGCCAAAGGGAGCAGACGAAAGUCUGCCGUCAUCGACUUCGAAGGUUCGAAUCCUUCCCCCACCGGGCCC
# B13: MiniH dLoop+2bp (dsRNA)
# RNA 1: GACCACUCAGGCCUACCA
# RNA 2: AGGCUUGGGUGGUC
# B14: MiniH dLoop+4bp (dsRNA)
# RNA 1: GUGACCACUCAGGCCUACCA
# RNA 2: AGGCUUGGGUGGUUAC
# B15: MiniH dLoop+6bp (dsRNA)
# RNA 1: GCAUGACCACUCAGGCCUACCA
# RNA 2: AGGCUUGGGUGGUUAUGC
# B16: tRNATyr G17C/G18C (structured_RNA)
# RNA: GGUGGGGUUCCCGAGCCCCCAAAGGGAGCAGACUGUAAAUCUGCCGUCAUCGACUUCGAAGGUUCGAAUCCUUCCCCCACCACCA
# B17: S. cerevisiae tRNAAsp (G1-C72) (structured_RNA)
# RNA: GCCGUGAUAGUUUAAUGGUCAGAAUGGGCGCUUGUCGCGUGCCAGAUCGGGGUUCAAUUCCCCGUCGCGGCGCCA
# B18: tRNAIle ASL-GAAA dACCA 3bp (structured_RNA)
# RNA: GGCGGGCUUGUAGCUCAGGUGGUUAGAGCGCACCGCGAAAGCGGUGAGGUCGGUGGUUCAAGUCCACUCAGGCCCGCC
# B19: human mascRNA (structured_RNA)
# RNA: GAUGCUGGUGGUUGGCACUCCUGGUUUCCAGGACGGGGUUCAAAUCCCUGCGGCGUCUCCA
# Target: T1, Arc1p dN (Saccharomyces cerevisiae, UniProt P46672 132-376, del1-131)
# T1 sequence: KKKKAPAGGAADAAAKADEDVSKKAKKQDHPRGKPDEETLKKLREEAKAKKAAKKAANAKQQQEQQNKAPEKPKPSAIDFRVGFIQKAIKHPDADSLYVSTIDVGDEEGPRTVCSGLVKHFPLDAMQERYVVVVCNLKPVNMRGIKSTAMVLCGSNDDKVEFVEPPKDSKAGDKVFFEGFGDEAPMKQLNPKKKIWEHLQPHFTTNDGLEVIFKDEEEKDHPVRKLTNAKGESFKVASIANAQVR
# Test: ITC; ITC (Arc1p): 25 mM Tris-HCl pH 7.4, 150 mM NaCl, 2 mM MgCl2, 25 °C. FP and competition FP: 25 mM Tris-HCl pH 7.5, 150 mM NaCl (Arc1p) or 50 mM NaCl (Trbp111), 2 mM MgCl2, room temperature
# Conditions: protein: recombinant; tags: His-MBP removed; elbow disrupted
row,Binder,Kd [µM]
1,B1,2.79 ± 0.304
2,B2,3.33

# Same assay, conditions: protein: recombinant; tags: His-MBP removed; palindromic tail, strong dimer
row,Binder,Kd [µM]
1,B3,3.3

# Same assay, conditions: protein: recombinant; tags: His-MBP removed; palindromic tail, weak dimer
row,Binder,Kd [µM]
1,B4,1.5 ± 0.283

# Same assay, conditions: protein: recombinant; tags: His-MBP removed; tRNA fold
row,Binder,Kd [µM]
1,B5,2.1 ± 0.985
2,B6,0.654 ± 0.165
3,B7,1.75 ± 0.958
4,B8,0.252 ± 0.11
5,B9,1.04 ± 0.295

# Target: T2, Trbp111 (Aquifex aeolicus, UniProt O66738 1-111)
# Test: competition FP; vs fluorescein-tRNATyr; FP: 25 mM Tris-HCl pH 7.5, 2 mM MgCl2, 50 mM NaCl (Trbp111) or 150 mM NaCl (Arc1p), room temperature; ITC: 25 mM Tris-HCl pH 7.4, 150 mM NaCl, 2 mM MgCl2, 25 C
# Conditions: protein: recombinant; tags: His-MBP removed (PreScission); chain copies: 2; single strand
# T2 sequence (O66738 entry or part of it): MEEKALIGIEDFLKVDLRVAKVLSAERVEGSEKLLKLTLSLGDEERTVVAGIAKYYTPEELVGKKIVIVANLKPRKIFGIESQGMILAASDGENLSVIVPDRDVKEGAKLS
row,Binder,IC50 [µM]
1,CCACUCAGGCCUACCA (ssRNA) [ssRNA 3'ACCA],8.2 ± 0.8

# Target: T2, Trbp111
# Test: competition fluorescence polarization; ITC (Arc1p): 25 mM Tris-HCl pH 7.4, 150 mM NaCl, 2 mM MgCl2, 25 °C. FP and competition FP: 25 mM Tris-HCl pH 7.5, 150 mM NaCl (Arc1p) or 50 mM NaCl (Trbp111), 2 mM MgCl2, room temperature
# Conditions: protein: recombinant; tags: His-MBP removed (PreScission); chain copies: 2; hairpin
Binder,binding result,IC50 [µM]
AGGCUUGGGUGGUUCAAGUCCACUCAGGCCU (structured_RNA) [MiniH dACCA],no binding,
AGGCUUGGGUGGUUCAAGUCCACUCAGGCCUACA (structured_RNA) [MiniH dC74],,5.06 ± 0.269
AGGCUUGGGUGGUUCAAGUCCACUCAGGCCUCCA (structured_RNA) [MiniH dA73],,5.21 ± 0.817
"AGGCUUGGGUGGUUCAAGUCCACUCAGGCCUACCA (mixed, four terminal deoxyriboses) [MiniH DNA tail]",,7.51 ± 1.02
AGGCUUCGAAAGAGGCCUACCA (structured_RNA) [MicroH GAAA loop],,5.92 ± 0.188
AGGCUUGGGUGGUUCAAGUCCACUCAGGCCUACCAUUUU (structured_RNA) [MiniH +UUUU],no binding,
AGGCUUCGAAAGAGGCCUUGGU (structured_RNA) [MicroH UGGU],no binding,

# Same assay, conditions: protein: recombinant; tags: His-MBP removed (PreScission); chain copies: 2; single strand
Binder,IC50 [µM],binding result
CCACUCAGGCCUACCA (ssRNA) [ssRNA 3'ACCA],8.63 ± 0.796,
ACCACUCACGCCU (ssRNA) [ssRNA 5'ACCA],,no binding
CCACUCAGGCCU (ssRNA) [ssRNA dACCA],,no binding

# Target: T1, Arc1p dN
# Test: as above
# Conditions: protein: recombinant; tags: His-MBP removed
row,Binder,IC50 [µM]
1,B10,2.26 ± 1.21
2,B11,0.804 ± 0.107
3,B12,1.02 ± 0.224
4,B13,4.66 ± 1.43
5,AGGCUUGGGUGGUUUUUUUCCACUCAGGCCUACCA (structured_RNA) [MiniH ULoop],3.95 ± 0.248
6,AGGCUUGGGUGCGAAAGCACUCAGGCCUACCA (structured_RNA) [MiniH LoopGAAA],3.06 ± 0.0821
7,AGGCUUGGGUGGUUCAAGUCCACUCAGGCCUACAA (structured_RNA) [MiniH-ACAA],3.08 ± 0.63
8,AGGCUUGGGUGGUUCAAGUCCACUCAGGCCUACUA (structured_RNA) [MiniH-ACUA],2.6 ± 0.397
9,AGGCUUGGGUGGUUCAAGUCCACUCAGGCCUACGA (structured_RNA) [MiniH-ACGA],4.83 ± 0.11
10,B14,3.9 ± 0.124
11,B15,3.47 ± 0.263
12,B16,0.652 ± 0.0471
13,B17,0.402 ± 0.0538
14,AGGCUUUUCAAGUAGGCCUUGGU (structured_RNA) [MicroH 3'UGGU],15.3 ± 3.31
15,B18,0.681 ± 0.201

# Same assay, conditions: protein: recombinant; tags: His-MBP removed; hairpin
row,Binder,IC50 [µM]
1,AGGCUUGGGUGGUUCAAGUCCACUCAGGCCU (structured_RNA) [MiniH dACCA],10.5 ± 2.82
2,AGGCUUGGGUGGUUCAAGUCCACUCAGGCCUACA (structured_RNA) [MiniH dC74],3.03 ± 0.158
3,AGGCUUGGGUGGUUCAAGUCCACUCAGGCCUCCA (structured_RNA) [MiniH dA73],2.45 ± 0.511
4,AGGCUUGGGUGGUUCAAGUCCACUCAGGCCUACAC (structured_RNA) [MiniH-ACAC],3.92 ± 0.672
5,AGGCUUUUCAAGUAGGCCU (structured_RNA) [MicroH dACCA],53.7 ± 5.22
6,AGGCUUCGAAAGAGGCCUACCA (structured_RNA) [MicroH GAAA loop],13.4 ± 5.38
7,AGGCUUGGGUGGUUCAAGUCCACUCAGGCCUACCAUUUU (structured_RNA) [MiniH +UUUU],9.39 ± 0.782
8,AGGCUUCGAAAGAGGCCUUGGU (structured_RNA) [MicroH UGGU],43 ± 7.65

# Same assay, conditions: protein: recombinant; tags: His-MBP removed; tRNA-like
row,Binder,IC50 [µM]
1,B19,0.377 ± 0.0571

# Target: T3, Arc1p (Saccharomyces cerevisiae, UniProt P46672 1-376)
# T3 sequence: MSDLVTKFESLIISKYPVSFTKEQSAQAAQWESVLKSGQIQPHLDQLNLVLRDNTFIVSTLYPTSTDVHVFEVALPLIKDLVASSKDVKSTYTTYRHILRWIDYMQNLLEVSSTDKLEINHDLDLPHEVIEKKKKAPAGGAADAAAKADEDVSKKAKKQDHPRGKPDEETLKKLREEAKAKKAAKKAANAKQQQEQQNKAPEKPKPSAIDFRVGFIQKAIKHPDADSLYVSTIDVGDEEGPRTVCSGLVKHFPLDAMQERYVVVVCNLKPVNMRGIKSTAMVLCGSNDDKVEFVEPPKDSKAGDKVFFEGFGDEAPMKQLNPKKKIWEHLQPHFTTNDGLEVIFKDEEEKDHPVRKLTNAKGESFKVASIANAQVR
# Test: as above
# Conditions: protein: recombinant; tags: His-MBP removed
row,Binder,IC50 [µM]
1,B12,5.11
2,B16,4.52
3,B17,1.71 ± 0.125
4,B18,9.92

# Same assay, conditions: protein: recombinant; tags: His-MBP removed; tRNA-like
row,Binder,IC50 [µM]
1,B19,1.14 ± 0.127
